From paper PMC9897663
Positions count from the first letter of the chain named. Numbers in names are those of the source.

Assays:
Test in all cases: purified protein
Settings in all cases: potassium phosphate pH 7.5, 22-23 °C
purified protein [1] = substrate: O=C(Nc1ccn([C@H]2C[C@H](O)[C@@H](CO)O2)c(=O)n1)c1ccccc1
purified protein [2] = substrate: O=C(Nc1ccn([C@H]2C[C@H](O)[C@@H](CO)O2)c(=O)n1)c1ccccc1; type: biochemical, uncultured bacterium
purified protein [3] = substrate: Nc1ccn([C@H]2C[C@H](O)[C@@H](CO)O2)c(=O)n1; type: biochemical, uncultured bacterium
[4] = substrate not given, inferred from the stated about twofold rise over wild type

B1: CDA_F14 (uncultured bacterium; G81L) (protein)
chain: MNKEDLLKKAFEAMENAYAPYSNYHVGACALMKDGTTFLGANIENASYGATNCGERSAIFAAYSNGYRADDIEALAIVTDLDRVGAPCGICRQVLSELLNDNTPIYLSNGKETLEKTIDELLPMRFTKEDLL
Km (purified protein [1]): (8.66 ± 3.8) × 10^-4 M | kcat (purified protein [1]): (7.89 ± 3.08) × 10^-1 s^-1

B2: CDA_F14 (uncultured bacterium; G81L/G85I) (protein)
chain: B1 chain with G85I
Km (purified protein [1]): (4.93 ± 1.3) × 10^-4 M | kcat (purified protein [1]): (4.14 ± 0.88) × 10^-2 s^-1

B3: CDA_F14 (uncultured bacterium; F126A) (protein)
chain: B1 chain with L81G, F126A
Km (purified protein [1]; [4]): (2.59 ± 0.73) × 10^−4 M

B4: CDA_F14 (uncultured bacterium; F126W) (protein)
chain: B1 chain with L81G, F126W
notes: recombinant in E. coli HMS174 delta-pyrF delta-cdd, purified; homotetramer, one Zn per subunit; active site formed by three subunits
Km (purified protein [2]; [4]): (2.11 ± 0.38) × 10^−4 M

B5: CDA_F14 (uncultured bacterium) (protein)
chain: B1 chain with L81G
notes: as for B4
Km (purified protein [3]): (1.95 ± 0.36) × 10^−4 M | kcat (purified protein [3]): (24.4 ± 1.71) × 10^−1 s^−1 | Km (purified protein [2]): (1.15 ± 0.16) × 10^−4 M | kcat (purified protein [2]): (5.04 ± 0.4) × 10^−1 s^−1
